Results on two molecules are retold here after patent US8367390B2, “Galactanase variants” (Novozymes A/S, priority 2002, dated 2013).

Type in all cases: biochemical
The nature of data set [1]: HPAE-PAD check of transglycosylation products from ONPG. To be noted: HIGAL 110 μg/ml; ONPG 5 mg/ml with and without Gal2 or Gal3 0.05 mg/ml; room temperature, pH 6.5. The protocol: Using HPAE-PAD chromatography (Dionex LC-500 System, PA-100 column, linear gradient of 0-0.6 M sodium acetate in 100 mM NaOH), the production of larger oligosaccharides from transglycosylation upon incubation of HIGAL (110 μg/ml) at room temperature (0.5 to 14 min followed by heat inactivation for 10 min at 95° C. resulting in A405: 0.15-0.67) in 50 mM sodium acetate, 1 mM CaCl2, 0.01% Triton X-100, pH 6.5 with ONPG (5 mg/ml) with and without Gal2 (0.05 mg/ml) or Gal3 (0.05 mg/ml) as acceptor was verified.

Data set [2] can be described thus: Activity on lactose, products by HPAE-PAD. To be noted: lactose 100 mg/ml, 50° C.
Data set [3] is described as follows: Activity on lactose, products by HPAE-PAD. To be noted: lactose 100 mg/ml, 50° C., pH 6.45. As for the experimental part:
HIGAL (60 micrograms/ml) and MTGAL (750 μg/ml) were incubated at 50° C. with lactose (Lac) (100 mg/ml) at pH 4.8 (25 mM sodium citrate), 6.45 (25 mM sodium acetate, 0.5 mM CaCl2, 0.005% Triton X-100) and 8.6 (50 mM Tris, 0.01% Brij 35). 20 microliters samples were withdrawn after 2, 23 and 120 hours, 980 water added and enzyme inactivated by heating to 95° C. for 10 min. After a further 20 time dilution with water, samples were analysed using HPAE-PAD (Dionex LC-500 system, PA-100 column, 0-3 min: 150 mM NaOH, 3-19 min: linear gradient 0-0.18 M sodium acetate in 150 mM NaOH). Response factors for the individual peaks were estimated from standards of Gal, Glu, Lac, Gal2, Gal3 and Gal4.
In Tables 12 and 13 weight fractions of the analysed products with MTGAL at pH […] and 6.45 are given. The figures indicate weight % of the products resulting from the incubation. The term DP3 indicates transglycosylation product consisting of three sugar units, and the term DP4+ transglycosylation products consisting of four or more sugar units. Unfortunately, the analysis method used was not able to separate Glu and Gal.

Data set [4] in a line: pH profile of galactanase activity on lupin AZCL-galactan. To be noted: 15 min at 37° C., A590, unit assumed. The protocol: The pH profiles of the purified variants described above were established as follows: Galactanase activity at various pH was measured by mixing 500 μl 4 mg/ml lupin AZCL-galactan (Megazyme, Australia) in water with 500 μl buffer (50 mM sodium acetate, 50 mM potassium dihydrogenphosphate, 50 mM boric acid, 1 mM CaCl2, 0.01% Triton X-100 adjusted to pH 2.5, 3.5, 4.5, 5.5, 6.5, 7.5, 8.5 or 9.5 with HCl/NaOH) and 25 μl purified enzyme diluted to about 0.5-2 μg/ml in water. The mixture was incubated 15 min at 37° C., insoluble material was removed by centrifugation, and absorbance in the supernatant was measured at 590 nm.

[5] abbreviates: pH 4.5, incubation time 2 hours.
The mark [6] stands for this setting: pH 4.5, incubation time 23 hours.
[7] abbreviates: pH 4.5, incubation time 120 hours.
Setting [8] is: pH 6.45, incubation time 120 hours.

B1: HIGAL: GH Family 53 galactanase from Humicola insolens, SEQ ID NO: 2 (wild type parent) (protein, listed as Humicola insolens)
chain: ALQYKGVDWSSVMVEERAGVRYKNVNGQEKPLEYILAENGVNMVRQRVWVNPWDGNYNLDYNIQLARRAKAAGLGLYINFHYSDTWADPAHQTTPAGWPSDINNLAWKLYNYTLDSMNRFADAGIQVDIVSIGNEITQGLLWPLGKTNNWYNIARLLHSAAWGVKDSRLNPKPKIMVHLDNGWNWDTQNWWYTNVLSQGPFEMSDFDMMGVSFYPFYSASATLDSLRRSLNNMVSRWGKEVAVVETNWPTSCPYPRYQFPADVRNVPFSAAGQTQYIQSVANVVSSVSKGVGLFYWEPAWIHNANLGSSCADNTMFTPSGQALSSLSVFHRI
modifications: mat_peptide (1)..()
As to B1, the “Production of larger oligosaccharides from transglycosylation” value in data set [1] was “verified”.

B2: MTGAL: GH Family 53 galactanase from Myceliophthora thermophila, SEQ ID NO: 1 (wild type parent) (protein, listed as Myceliophthora thermophila)
chain: ALTYRGVDWSSVVVEERAGVSYKNTNGNAQPLENILAANGVNTVRQRVWVNPADGNYNLDYNIAIAKRAKAAGLGVYIDFHYSDTWADPAHQTMPAGWPSDIDNLSWKLYNYTLDAANKLQNAGIQPTIVSIGNEIRAGLLWPTGRTENWANIARLLHSAAWGIKDSSLSPKPKIMIHLDNGWDWGTQNWWYTNVLKQGTLELSDFDMMGVSFYPFYSSSATLSALKSSLDNMAKTWNKEIAVVETNWPISCPNPRYSFPSDVKNIPFSPEGQTTFITNVANIVSSVSRGVGLFYWEPAWIHNANLGSSCADNTMFSQSGQALSSLSVFQRI
modifications: mat_peptide (1)..()
In the case of B2, the DP3 in products is given as 2.0 weight % in data set [2] (setting [5]); 7.0 weight % in data set [2] (setting [6]); 8.9 weight % in data set [2] (setting [7]); 11.7 weight % in data set [2] (setting [8]); 1.4 weight % in data set [3] (incubation time 2 hours); 6.3 weight % in data set [3] (incubation time 23 hours). Besides, the “DP4+ in products” value in data set [2] (setting [5]) is given as 0.5 weight %; in data set [2] (setting [6]), 1.8 weight %; in data set [2] (setting [7]), 1.1 weight %; in data set [2] (pH 6.45, incubation time 2 hours), 1.9 weight %; in data set [2] (pH 6.45, incubation time 23 hours) it was 1.9 weight %; in data set [2] (setting [8]), 4.7 weight %. Moreover, the Glu/Gal in products came to 1.4 weight % in data set [2] (setting [5]); 12.5 weight % in data set [2] (setting [6]); 38.8 weight % in data set [2] (setting [7]); 1.0 weight % in data set [3] (incubation time 2 hours); 6.5 weight % in data set [3] (incubation time 23 hours); 21.0 weight % in data set [3] (incubation time 120 hours). Also, the Lac/Gal2 in products in data set [2] (setting [5]) is 96.0 weight %; in data set [2] (setting [6]), 78.7 weight %; in data set [2] (setting [7]), 51.2 weight %; in data set [2] (setting [8]), 62.6 weight %; in data set [3] (incubation time 2 hours), 95.7 weight %; in data set [3] (incubation time 23 hours), 85.3 weight %. In addition, the “Conversion of Lac” value in data set [2] (pH 4.5 and 6.5) is “significant conversion of Lac”. The molecule also yielded a Galactanase activity at pH 2.5 in data set [4] (pH 2.5) of 0%. The molecule further came in with a Galactanase activity at pH 3.5 in data set [4] (pH 3.5) of 12%. In addition, the Galactanase activity at pH 4.5 in data set [4] (pH 4.5) was 41%. Further, in data set [4] (pH 5.5), the Galactanase activity at pH 5.5 turned out to be 63%. In data set [4] (pH 6.5), the Galactanase activity at pH 6.5 turned out to be 90%. Moreover, in data set [4] (pH 7.5), the Galactanase activity at pH 7.5 was found to be 100%. Also, the Galactanase activity at pH 8.5 in data set [4] (pH 8.5) amounted to 54%. Further, in data set [4] (pH 9.5), the Galactanase activity at pH 9.5 worked out at 7%.
